Assay results published in paper PMC6323120.

Molecular target: T1, TNFR1, P19438
T1 chain: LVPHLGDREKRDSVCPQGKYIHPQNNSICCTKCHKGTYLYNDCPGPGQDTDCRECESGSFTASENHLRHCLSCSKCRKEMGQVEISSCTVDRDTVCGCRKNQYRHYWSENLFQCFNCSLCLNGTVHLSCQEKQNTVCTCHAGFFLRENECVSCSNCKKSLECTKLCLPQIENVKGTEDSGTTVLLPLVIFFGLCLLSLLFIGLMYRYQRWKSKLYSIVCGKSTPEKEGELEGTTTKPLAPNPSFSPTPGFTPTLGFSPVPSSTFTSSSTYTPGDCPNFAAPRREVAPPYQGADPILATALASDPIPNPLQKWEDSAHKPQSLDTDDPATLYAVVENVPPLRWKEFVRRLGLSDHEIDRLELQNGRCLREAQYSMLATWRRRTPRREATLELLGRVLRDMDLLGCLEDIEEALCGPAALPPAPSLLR
Test: quantitative single-molecule localization microscopy (dSTORM/PALM); TNFR1 in the plasma membrane at physiological cell surface expression levels, upon TNF binding
Conditions: remark: other sources report otherwise

B1: TNFR1, P19438 30-455 (receptor)
chain: T1 chain
B1 was tested, and the stoichiometry N was > 3.
